From US12539335B2, “Tricyclic polypeptide conjugated drug and use thereof” (CONJUSTAR (ZHUHAI) BIOLOGICS CO., LTD., priority 2021, dated 2026)
Counter-ions that a name gives are not always drawn. Starred links: 1 amine or outer side, 2 acyl side, 3 side chain; linkers in the order of their positions; H or OH if unused. Positions of bridges follow the written chain, without caps; N, C: chain ends. Non-standard residues stand in square brackets, D forms with d. Residues, ends and D or L forms follow the SMILES beside them. Chains are numbered I, II in the order given. *: point of attachment. TATA = O=C(CC[*:1])N1CN(C(=O)CC[*:2])CN(C(=O)CC[*:3])C1; Dolaproine = CO[C@@H]([C@@H]1CCCN1)[C@@H](C)C(=O)O; Dil = CC[C@H](C)[C@H](NC)[C@@H](CC(=O)O)OC; 1Nal = N[C@@H](Cc1cccc2ccccc12)C(=O)O; X2 = O=C(CCCC(=O)[*:2])NCCC(=O)[*:1]; PABC = O=C(OCc1ccc(N[*:1])cc1)[*:2]; X1 = C[C@@H](N*)[C@@H](O)c1ccccc1; Hyp = O=C(O)[C@@H]1C[C@@H](O)CN1; hArg = N=C(N)NCCCC[C@H](N)C(=O)O; Cit = NC(=O)NCCC[C@H](N)C(=O)O; Pen = CC(C)(S)[C@H](N)C(=O)O; NMeV = CN[C@H](C(=O)O)C(C)C; Sar = CNCC(=O)O

What was measured:
[1] = Metabolic stability in kidney S9, humans; format: in vitro ADME; conditions: human
Description: (§1) Test Example 8: Metabolic Stability of the Compounds of the Present Invention in Kidney S9 from Mice, Rats, Cynomolgus Macaques, and Humans
(§2) To investigate the metabolic stability of the compounds of the present invention in kidney S9 from mice, rats, Cynomolgus macaques, and humans.
(§3) Materials: Kidney S9 from CD-1 mice, SD rats, Cynomolgus macaques, and humans were purchased from BioIVT or XenoTech LLC and stored in a −80° C. refrigerator.
(§4) Experimental procedure: Eight 96-well plates, designated T0, T5, T15, T30, T45, T60, Blank, and NCF60, were prepared. The first six incubation plates corresponded to reaction time points of 0, 5, 15, 30, 45, and 60 minutes, respectively. No test sample or control compound was added to the Blank plate.
(§5) The T0, T5, T15, T30, T45, and T60 plates were added with a 2 μL working solution of the test sample (10 mM of a solution of the compound to be tested in DMSO, diluted to 100 μM with 100% acetonitrile) and 100 μL of a S9 working solution (kidney S9 protein concentration of 1.0 mg/mL), and the Blank plate was only added with the S9 working solution. The above incubation plates were then placed in a 37° C. water bath for pre-incubation for about 10 minutes.
(§6) At the end of the pre-incubation, 98 μL of an auxiliary enzyme working solution was added to each sample well except the TO plate to start the reaction. […]

Human Nectin-4 = target: T1, Human Nectin-4 (Homo sapiens, UniProt Q96NY8); assay: Binding capacity to Nectin-4 protein (SPR, Biacore 8K)
T1 construct: purchased GE Healthcare 1006-72
T1 sequence (Q96NY8 32-510): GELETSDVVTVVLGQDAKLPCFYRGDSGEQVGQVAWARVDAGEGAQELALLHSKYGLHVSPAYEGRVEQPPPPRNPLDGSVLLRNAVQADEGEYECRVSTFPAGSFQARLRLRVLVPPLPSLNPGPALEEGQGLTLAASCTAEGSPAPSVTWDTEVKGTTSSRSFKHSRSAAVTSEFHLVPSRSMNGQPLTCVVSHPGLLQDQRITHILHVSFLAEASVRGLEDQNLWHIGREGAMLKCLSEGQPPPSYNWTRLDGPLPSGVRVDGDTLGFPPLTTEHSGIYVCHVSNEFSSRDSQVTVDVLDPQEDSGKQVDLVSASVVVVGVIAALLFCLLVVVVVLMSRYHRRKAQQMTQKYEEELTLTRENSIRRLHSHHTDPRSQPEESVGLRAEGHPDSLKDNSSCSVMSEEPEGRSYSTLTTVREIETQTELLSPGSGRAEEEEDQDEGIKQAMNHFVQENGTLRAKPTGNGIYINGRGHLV
Description: Test Example 1. Binding Capacity Test of the Compounds of the Present Invention to Nectin-4 Protein
To detect the affinity of the compound to be tested to the target protein Nectin-4 using the SPR method.
• Biacore 8K (GE Healthcare) • 96-well Plate (Cat #650101, greiner bio-one) • CM5 chip (Cat #BR-1005-30, GE Healthcare) • Amine Coupling Kit (Cat #BR-1000-50, GE Healthcare) • EDC • NHS • 1 M ethanolamine • 10 mM sodium acetate pH 4.5 (Cat #BR-1003-50, GE Healthcare) • DMSO (Cat #D4540, Sigma) • P20 (Cat #BR-1000-54, GE Healthcare) • PBS (Cat #BR-1006-72, GE Healthcare) • Nectin-4 (Cat #1006-72, GE Healthcare) 3. Experimental Protocol
In this experiment, the amino coupling method was used. The target protein Nectin-4 was directly immobilized on the CM5 chip using Biacore 8K. […] The final data were subjected to Kinetics fitting analysis based on a 1:1 model using Biacore Insight Evaluation Software (V 2.0.15.12933).
1) Preparation of the buffer: 10 mM PBS, pH 7.4, 137 mM NaCl, 2.7 mM KCl, 5% DMSO, and 0.05% P20.
2) Activation of the CM5 chip: The CM5 chip was activated with 400 mM EDC and 100 mM NHS at a flow rate of 10 μL/min for 420 seconds.
3) Coupling of the target protein: The target protein was diluted to 10 μg/mL with 10 mM sodium acetate (pH 4.5) and coupled at a flow rate of 10 μL/min for 284 s. The 1 #, 2 #, and 3 #channels on the chip were used in the experiment, and the coupling results were 1639.9RU, 1747.8RU, and 1702.2RU, respectively.
4) Blocking of the CM5 chip: The CM5 chip was blocked with 1 M ethanolamine at a flow rate of 10 μL/min for 420 seconds.
5) Analyte concentration: The compound to be tested was diluted with the buffer. The compound to be tested was diluted from 100 nM to 0.78 nM in a 2-fold gradient.
6) Sample injection analysis: Each concentration of the working solution of the compound to be tested corresponded to one cycle, with a flow rate of 30 μL/min for binding for 180 seconds and dissociating for 180 seconds. The last cycle was a 5% DMSO solvent correction cycle.
7) All results were subjected to kinetics fitting analysis based on a 1:1 model. […]

[2] = Stability in plasma, SD rats; format: in vitro ADME; conditions: Sprague-Dawley (SD), rat, 37° C.
Description: Test Example 9: Stability Analysis of the Compounds of the Present Invention in Plasma from Different Species
To test the stability of the compounds of the present invention in plasma from SD rats, Cynomolgus macaques, and humans.
The corresponding incubation plates, including T0, T10, T30, T60, T120, and T240 incubation plates, were added with a 2 μL working solution of the compound to be tested (100 μM). Three parallel wells were prepared for each sample. Then, 98 μL of blank plasma from SD rats, Cynomolgus macaques, and humans was added to the corresponding incubation plates to which the working solution had been added. All samples were incubated in a 37° C. water bath. […] At the end of each incubation time point, the corresponding incubation plate was removed, added with stop buffer, precipitated, and centrifuged for 20 minutes. Then, 150 μL of the supernatant was analyzed by the LC-MS/MS method. The concentration of the compound to be tested in the sample was semi-quantitatively determined by the liquid chromatography-tandem mass spectrometry (LC-MS/MS) method.

[3] = Metabolic stability in kidney S9, SD rats; format: in vitro ADME; conditions: Sprague-Dawley (SD), rat
Description: as §1, §2, §3, §4, §5, §6

Question: Which half-life at 1 μM [1] does the source give for CC[C@H](C)[C@@H]([C@@H](CC(=O)N1CCC[C@H]1[C@H](OC)[C@@H](C)C(=O)N[C@H](C)[C@@H](O)c1ccccc1)OC)N(C)C(=O)[C@@H](NC(=O)[C@H](C(C)C)N(C)C(=O)OCc1ccc(NC(=O)[C@H](CCCNC(N)=O)NC(=O)[C@@H](NC(=O)CCCC(=O)NCCC(=O)N(C)CC(=O)N(C)CC(=O)N(C)CC(=O)N(C)CC(=O)N(C)CC(=O)N(C)CC(=O)N(C)CC(=O)N(C)CC(=O)N(C)CC(=O)N(C)CC(=O)N[C@H]2CCCCNC(=O)C[C@@H](C(=O)N[C@H]3CSCCC(=O)N4CN5CN(C4)C(=O)CCSC(C)(C)[C@H](NC(=O)[C@@H](CC(=O)O)NC(=O)[C@H](Cc4cccc6ccccc46)NC(=O)[C@@H]4CCCN4C3=O)C(=O)N[C@@H](CCSC)C(=O)N[C@@H](CCCCNC(=N)N)C(=O)N[C@@H](CC(=O)O)C(=O)N[C@@H](Cc3c[nH]c4ccccc34)C(=O)N[C@@H](CO)C(=O)N[C@@H]([C@@H](C)O)C(=O)N3CCC[C@H]3C(=O)N3C[C@H](O)C[C@H]3C(=O)N[C@@H](Cc3c[nH]c4ccccc34)C(=O)N[C@H](C(N)=O)CSCCC5=O)NC(=O)CN(C)C2=O)C(C)C)cc1)C(C)C [Acetate salt of PDC_2] (I: [Sar][Sar][Sar][Sar][Sar][Sar][Sar][Sar][Sar][Sar]K[Sar]DCP[1Nal][dD][Pen]M[hArg]DWSTP[Hyp]WC-NH2 / II: V[Cit][PABC][NMeV]V[Dil][Dolaproine]-X1; lactam I:11-I:13; linker I:14-I:18-I:28 via TATA; linker I:N-II:N via X2) here?
Answer: > 2.42 h

Question: And the microsomal CLint at 1 μM [1]?
Answer: < 9.6 µL/min/mg

Question: What about the Kd (Human Nectin-4) of the same compound?
Answer: 0.43 nM

Question: And the half-life at 2 μM [2]?
Answer: > 9.63 h

Question: What about the half-life at 1 μM [3] of the same compound?
Answer: > 2.42 h

Question: And the microsomal CLint at 1 μM [3]?
Answer: < 9.6 µL/min/mg
